The results in this text go back to the domain aggregation screens of Martell et al. (2025).

A short description of this data set: soluble fraction after stress (log2 fold change); higher = more stays soluble; pooled small domains, quantitative proteomics. Particulars: stress: 50 degC. Summed up:
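The stress applied to every library was 50°C. These custom libraries of small protein domains were pooled and measured at high throughput with quantitative proteomics as the read-out. Aggregation propensity is expressed as the base-two logarithm of the fold change in how much of each protein remains soluble. The higher the value, the more of that protein stays in solution.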

In the case of “HMNAYEVLIPNIYIGQRVDQTLASLFPQFSRSRLQNWLARGNLLIDGEIIKPKTKVLGGEQIIILDT”, the “soluble fraction (log2)” value was -1.83. The figure for “HMTEWSIHEVAQRSGVTTRTLRHYDAIGILSPTRTGANGYRYYGPEALVRLQRILLLRDLGLALSDIAE” is -4.61; for “HMTDLVVGLAGITLEPLRPAGKAEFNGSVVDVVSLGDYIEKSTAIQIVEIEGNRIVVHHGED” it is -0.0705; for “HMDINMELGKNIRRLRKLNNLTQQSLANQMNRSKTLIALWEKGERDPSSIDLKRLSEIFNVRADDIIG” it is -0.689.

In the case of “HMAAVPQPQRSETIVYIGGRKFYVHTVQAGETLYSIARLYGVSEQTLVANNPTMADVVKADQNVRIPVPA”, the “soluble fraction (log2)” value is -0.272. For “HMNINLDINTYTVKELEKLLKLEVPYSDNNVFEKKNLMVKMIQTSTIAETKKEELYIFLDNIYNRLTNNLE”, the “soluble fraction (log2)” value is -1.35. Under “HMRNQIRAVITPVPNQERYTVEMTIDDDAGNLLTLQMAAPDRQQAAEFAQRFQKHPEALYHAVLSVLL” stands 0.0702; under “HMGEKPTEITLSNAISVQELAEKLYVSETDIIRTLFLDGIIVNINQVLDLETAVKVGDQLGVTITIVE”, -1.2; under “HMQAATGVVTASVLNIRQGPGTNYTKVGSLLKGAQVEIVGQNGAWSKIRLKSGITGWVNSSYLKTST”, -0.0664.

Take “HMLPNIKSEMEILGDNAKARLEAAELWSKKYLSNEAYDTMSKLATTADGVKAIEEIMNITKS”: the “soluble fraction (log2)” value is -0.0779. Under “HMTHHGHSIKRIRDMLGIKQETLAAELNMTQQAFSKLEQKEQIEDEMLDKIAKILHVSTEALKT” stands -0.00336; under “HMNSKKRQAILESLRSVTDHPTAEMIYNRLKPEYPDLSLGTVYRNLAMFLEEGQVISVGTVDGQERYDAR”, -0.306. As to “HMEMTSREIIKRLEEDGWYHVKTTGDHYQMKHPTKPGKVTIVHPAKDLSIGTLRSIEKQSGVRL”, the “soluble fraction (log2)” value was -0.0157. Take “HMVIDETVLIDLFERLAEDDRPQRVAFRYILALVLLRKRTLQLIGREDEDDGEIWLLRFKGTDGEPIRV”: the “soluble fraction (log2)” value is -0.297. The figure for “HMLSTQEYIKKNIENGSWKVGEKIPSENNLTEILGVSRASIRVAIQQFIALDVLNSIHGKGTFVKTNNIMG” is 0.256; for “HMDGVYLKSLKQTEQHIHWSGYAQSNAWVSTLMRNLDASPWFESPLLIEIKAATINNSRSNEFDLNVRL” it is 0.0711. The figure for “HMRPQELSSLNTNQMRLYNSLPEAFITAEAKDIADKLRYSERSLFRFLNESNLFTKTEHGSYAKKA” is 0.133; for “HMTNPPTPADTLFNTVRGVLQSILKSPMKDTEVASALNVSKAQARSWLQRLSDEGLIEKRKNPTAYVL” it is -0.238; for “HMDGEFINLKNRAGTEIEARILNYQNGQVKLERKDGVTFVVSISMFDAKSVIAINHKIAEIIDT” it is -1.37. The figure for “HMRPEVTEHLKTADAILHGGDINRQSIVDELRQYAPLYIVRGNNDKDWAEAIPHDLTVTLGGVTFFMVHNR” is -0.0555; for “HMTVLPTENDAKALVGLNEDEAVKIIEGNGWTYRIGSRDGEQFMLTEDYSTSRLTLGIEKSIVVTATI” it is -0.151; for “HMKTLDATQRLKLNGEGIIVFNFGKYVDQPVVEIFKKERGYFAWMMSKDFSQQVKNIITKIHNEEILGK” it is -2.76. Regarding “HMDSAFVSDIRDAFDEAGVDSYRFFGTHSFKRGGVQLYRLLGVSDQEIKERGHWQTFSAYFAYVQA”, the “soluble fraction (log2)” value was found to be 0.218. The figure for “HMITIDADTGKRVYTRKEVADLVGASTQSIRLWEDAGAIPASVRDEGGYRYWYEEDLEAIKAYAS” is -0.19. Regarding “HMNVDALVGMPARVTRAFVQGAGEVKLDNGETWTARLSAGVTDAEASVGQTVSVIAVRGAAVEVAPE”, the “soluble fraction (log2)” value came to 0.0386.

Regarding “HMIMTIYEYIARNNPTGAKRVIESFGYVVTQPKKMGDNLRMLVAQEGEPALKAVVDLHPDKDLILEV”, the “soluble fraction (log2)” value is -2.87.

Turning to “HMNNQILYERLRDLRERNHFTQAFVSSKLNIGRATYSNYERGKRTPSLDVIMDLASFYKVPFTYF”, the “soluble fraction (log2)” value was -0.0166. Under “HMRREIRLTVTEEIVLMKFLLTQIPYKNRDNFKTLLNDRQIRVNGSVVTWYNHPLKPGQEVTIGWFKM” stands -0.168; under “HMHGERVVTAGQTVRVVFTSNGLQVSSEGKALAAGAVGDDIQVRAASGKVIRGTVTGPGVVQV”, 0.231; under “HMRESPYRRVAKFLLLIGTAEAAKIVSRLDQDQVEKVMLELSGIRSVPRDEATVILAEFESLLQQAR”, -1.47.

For “HMSALTELPVKTVNGKKYHYYVVKQHETVYALSKRFGITPEQLIKYNPSAEDGLQIDQELLFPATEI”, the “soluble fraction (log2)” value was found to be 0.161. Under “HMIGGASVFKQFLPLADKMLLTLIHSEFEGDTYFPVFSEKEWLLQESSSLLSATGYQLSFQTYIR” stands 0.0328. As to “HMDLQNIQNQLNTEFAKSDTRIIFWFDDKGEYEDEVSELQLGDVKLHILDGLNWFYSKYLLNEA”, the “soluble fraction (log2)” value was -0.274. The figure for “HMDPTVTFIVQVNGRVRDKITLSSDISENEAKNVALESPKITPHISGKSLSRVIFVPGKLINLVV” is -0.578; for “HMIMHLNQIIRNKRLAAGLTQEALAQKVGVTAPAVSKWEKGISYPDITLLPILARNLNTDVNTLLDFSA” it is -0.641.

Consider “HMEGTAAAVALKGLMEQSGVDLREVMAAVESRGYYPKGTPFENYDPAFVSGVLVGAWDQVYKMILDQRPIP”, for which the “soluble fraction (log2)” value was -0.217.

With “HMKVTQDIIFKRNGEEIKSKVLEITPDLIIYIDYSRADNIAREINISEVNMIIYKNGTSEIFSRPEE”, the “soluble fraction (log2)” value is 0.101.

Regarding “HMIGPYAAAKLMTNKDFVKWLSGGVEKSVFNPNSFGQHIRRLVQISEVNPDIRDEINAVVQGLTQ”, the “soluble fraction (log2)” value is -0.361. As for “HMAPDGIEDKEGWLKVLPMITNLSIQMQNLQARGMDYEHIRNLLHETLLRYDDRIDSNLFIPNV”, the “soluble fraction (log2)” value is 4.47e-05. Consider “HMRKYKIKEELPDNIYKIIQDNPGIVQKDIYDILGREYQQNISSYIYSMDKNGVIKRDKHGNSYKLYL”, for which the “soluble fraction (log2)” value is -0.318.

For “HMSKPVYILINKPKGFLASSTDKKVKKSVNDLINISNLNKIYPFDNMGRTSSGLLLLSNDLYFKKHFKDKI”, the “soluble fraction (log2)” value stood at 0.341. On to “HMRLATSELVYRIRALIRDQELQPGERLGSERALAQSLGISRSDLRMALAVLEASHEVIRKIGRAGGIVVS”, for which the “soluble fraction (log2)” value is -3.14. As for “HMAKRKYKSFKDVAEFAQKLGIKSSTEWWAYVRGHEIPSDIPKDPSTYYKKEWTTWGDFLGTGYVSSA”, the “soluble fraction (log2)” value was determined as 0.154.

As to “HMAVRLADMAAEKIRKMIIENKFDAGEPLSEMRLAEMFNVSRTPIREAIAILEQEGLLTTVHGKGAFIS”, the “soluble fraction (log2)” value was -0.367. Consider “HMIMNLNVLANNVRRLRTAQRLSQSALASKAGLSVPAIKNLENARNEPRVNTVQVIAHALEVRLQDLFAPT”, for which the “soluble fraction (log2)” value was -1.62. The figure for “HMSVKYLQIYHAIREKILSNEYAINQQLPDEITLTKEFNSSRMTVKKALDLLVSEGLIFRKRGQGTFVLSR” is -2.27; for “HMENEDMTGDIRVIDYIRNVAEYIQTTKGQASASQMLDRFLFPPELQYTPLDKLSGGEQRRLYLLKVLMEA” it is 0.0342; for “HMTPTRQATVSVAALNVREQPSLQGRRLGKLTQGTTLTVVGPPGEWLKIEYKGETGFVYASYTSLG” it is -1.59. The figure for “HMTPKVAVPSFVGWKFEDVERQLGTMGLIRGKVDNHPSEEYSEGRVIWQSVLGEVEKGKVIDFWVSTGPE” is -0.0362. The figure for “HMKDYQGEISVVASGERIDVYLFNYFNLFSRTKIKNHIKNGNILVNENIISPSYILKQNDKIAFNLGAPY” is -2.39.

Turning to “HMSGVIVPDIYNKTLAEAVASLEGEGFSTEKKEGYSDTVPKGNVMSQKPEAGTSAERGSTVTITISQGPQ”, the “soluble fraction (log2)” value was -0.0107. The figure for “HMISKAQLFSEEELTELYRATGYQLENDPEIHREQFEALQAVRAKIEYAVPDVQEKLEQEQNLGQQ” is 0.295; for “HMEDEISLGAINVPRGSVIVTAGGARLVEGSDYTVDYYSGTVKILNKSLLDAGTPINVSLET” it is 0.0198; for “HMGGSIDITTAPPGAKIYLDADYYGKTPKRLENISAGTYRLHLLHPEKGEVYRSVTLNEKNGTLKIDENLN” it is 0.124.

Consider “HMATIIGSIGIVTQKVGLTGVPGRVYVNNESWAAISANGKEIENDTQVIVVKIDGATLIIEKKG”, for which the “soluble fraction (log2)” value was -1.47. For “HMSGPVITEERNIANALISGLANMKETPTREQVERKAQQIAELFGYTGDLRNIITEAMISVDT”, the “soluble fraction (log2)” value was 0.059. In the case of “HMAESTRSRILNAAIEMMETGGESSVRLSAIAEALGIKEPSIYHHFTNRTELVNAAYIEWYW”, the “soluble fraction (log2)” value is -0.0152. Consider “HMNLPTSGVDALTPAERRVARMAGDGQSNREIAQTLFVTRKTVEIHLTSVYRKLGIASRAELSARL”, for which the “soluble fraction (log2)” value is -2.6. For “HMLGDIYISIPRAKLQAEEYGHSFKRELAFLAVHGFYHLLGYDHQTKEEEEVMFGKQEEVLAEFDIKR”, the “soluble fraction (log2)” value was -0.218. As for “HMQMEISQRIKLERQTLKWTQEELADKIFVSKRTISNWETGRTVPDIESVLRLAKVFHVSLEDLLL”, the “soluble fraction (log2)” value is -4.57. The figure for “HMLSKGDRVSWDTPQGRTQGEVVEKKTKDFEHDGQKFTASDDDPAFIVKSEKSGAEAAHKGSALNK” is 0.0884; for “HMATPYISMAGIGKSFGPVHALKSVNLTVYPGEIHALLGENGAGKSTLMKVLSGIHEPTKGTITINNIN” it is 0.384; for “HMSFMPDPSIHDAITYTVRSGDYLGKISTTFGVKVSDLQKWNSIKSNIIYPGQKLTVWVSSNKRESLQ” it is -1.31. The figure for “HMETTVSYSGVVTASVLRIRKGPSVSSSVAGTLKKGTGVSIIFEDNGWGKLADGSGWVSLTYIKKNSTP” is -0.302; for “HMDLRAPKPIKEMGEEYIKLYQYLRKGESENIVMSKMNISLDDYDYMRSEIEDKLSLYNMLDLLRKP” it is -0.718. Under “HMHNPSYDMSKDVDILVMKFRDYNNLTDDEARFLLDKAKDAYYNTGKEILSDNEYDTLEKSLGQE” stands 0.178.

Regarding “HMIAALEGKQAMVLDQVSLHHGQVKLGGEVWTARPLNDQDVYEPGDRVTVMRIDGATAVVWRN”, the “soluble fraction (log2)” value was -0.281. For “HMAARKDLIAGEDAEGRLDAWLAAALDGEFSRNRVKALIEQGAVAINDVAVTEPKRKIRPGDRLSIVLPEP”, the “soluble fraction (log2)” value amounted to 0.339. As for “HMAFDGIVLKNITNALKELINGKINKIQQSSKDNLTLSIYNQKSYNLYIDISANNYRVNLTTHSE”, the “soluble fraction (log2)” value was 0.103.
